Patent US20250340630A1 (SICHUAN KELUN BIOTECH BIOPHARMACEUTICAL, published 2025)
Changes are numbered by the printed parent chain.

B1: chimeric antibody 1E9.2-hz00 (antibody, human IgG1, kappa, V domains shown)
VH: EVMLVESGGGLVKPGGSLKLSCAASGFSFSNSAMSWVRQTPEKRLEGVATISSGDSYTYYPDSVKGRFTISRDNAKNSLYLQMSSLRSEDTAVYYCARQGYGNALDYWGQGTSVTVSS
VL: DIVMTQSPSSLTVTAGEKVTMSCKSSQSLLNSGNQKNYLTWYQQKPGQPPKLLIYWSSTRESGVPDRFTGSGSGTDFTLTISSVQAEDLAVYYCQNDYYYPLTFGAGTKLELKR
notes: Mouse variable regions on human IgG1 / kappa constant regions; expressed in Expi293F; also called 1E9.2 chimeric antibody
B2: humanized antibody 1E9.2-hz12 (antibody, human IgG1, kappa, V domains shown)
VH: EVQLVESGGGLVKPGGSLRLSCAASGFSFSNSAMSWVRQAPGKGLEWVSTISSGDSYTYYADSVKGRFTISRDNAKNSLYLQMNSLRAEDTAVYYCARQGYGNALDYWGQGTLVTVSS
VL: DIVMTQSPDSLAVSLGERATINCKSSQSLLQSGNQKNYLTWYQQKPGQPPKLLIYWSSTRESGVPDRFSGSGSGTDFTLTISSLQAEDFAVYYCQNDYYYPLTFGGGTKVEIKR
notes: Human IgG1 / kappa constant regions
B3: humanized antibody 1E9.2-hz13 (antibody, human IgG1, kappa, V domains shown)
VH: B2 VH
VL: B2 VL with F89V
notes: as for B2
B4: humanized antibody 1E9.2-hz14 (antibody, human IgG1, kappa, V domains shown)
VH: B2 VH
VL: B2 VL with Q35N
notes: as for B2
B5: humanized antibody 1E9.2-hz41 (antibody, human IgG1, kappa, V domains shown)
VH: B2 VH with W47G, S49A, A61P
VL: B2 VL with Q31N
notes: as for B2
B6: humanized antibody 1E9.2-hz15 (antibody, human IgG1, kappa, V domains shown)
VH: B2 VH
VL: DIVMTQTPLSLPVTPGEPASISCKSSQSLLNSGNQKNYLTWYLQKPGQSPQLLIYWSSTRESGVPDRFSGSGSGTDFTLKISRVEAEDFGVYYCQNDYYYPLTFGGGTKVEIKR
notes: as for B2
B7: humanized antibody 1E9.2-hz17 (antibody, human IgG1, kappa, V domains shown)
VH: B2 VH
VL: B6 VL with N31Q, Q35G
notes: as for B2
B8: mouse antibody 19G10.14 (antibody, V domains shown)
VH: QVQLKESGPGLVAPSQSLSITCTVSGFSFTSYGVHWVRQPPGKGLEWLGVIWAGGSTDYNAALMSRLSIRKDNSKSQVFLKMNSLQIADTAMYYCARDGHGKVGFDVWGAGTTVTVSS
VL: DIVMTQSPSSLSVSAGEKVTMNCKSSQSLLNSGNQKNYLAWYQQKPGQPPKLLIYGASTRESGVPDRFTGGGSGTDFTLTISSVQAEDLAIYYCQNDHFYPFTFGSGTKLEIK
notes: Purified from hybridoma
B9: mouse antibody 1E9.2 (antibody, V domains shown)
VH: B1 VH
VL: DIVMTQSPSSLTVTAGEKVTMSCKSSQSLLNSGNQKNYLTWYQQKPGQPPKLLIYWSSTRESGVPDRFTGSGSGTDFTLTISSVQAEDLAVYYCQNDYYYPLTFGAGTKLELK
notes: Purified from hybridoma
B10: mouse antibody 16A9.11 (antibody, V domains shown)
VH: B1 VH with N74T, A97T, L105M
VL: B9 VL
notes: Purified from hybridoma
B11: mouse antibody 19H11.6 (antibody, V domains shown)
VH: B1 VH with Y57F, S63T, S85R
VL: B9 VL with S22T
notes: Purified from hybridoma
B12: mouse antibody 9C8.1 (antibody, V domains shown)
VH: QVQLQQSGAELVRPGSSVKISCKASGYAFSNYWMNWVKQRPGQGLEWIGQIYPGDGDTNYNGKFKGKATLTTDKSSSTAYMQLSSLTSEDSAVYFCARLYYGNSFAYWGQGTLVTVSS
VL: B9 VL with M21V, S57A, E87A, V91I, Y99F, L102F, A106G, L112I
notes: Purified from hybridoma
B13: mouse antibody 6B9.22 (antibody, V domains shown)
VH: QVQLQQSGAELVKPGASVKMSCKAFGYTFTSYPIEWMKQNHGKSLEWIGNFHPYNDDTKYNEKFKGKAKLTVEKSSSTVYLELSRLTSDDSAVYYCARTYYGNSFAYWGQGTLVTVSS
VL: B9 VL with S57A, T59S, E61D, D66H, V91F, Y99F, L102F
notes: Purified from hybridoma
B14: humanized antibody 1E9.2-hz21 (antibody, human IgG1, kappa, V domains shown)
VH: B2 VH with W47G
VL: B2 VL with Q31N
notes: as for B2
B15: humanized antibody 1E9.2-hz31 (antibody, human IgG1, kappa, V domains shown)
VH: B2 VH with W47G, S49A
VL: B2 VL with Q31N
notes: as for B2
B16: chimeric antibody 16A9.11-hz00 (antibody, human IgG1, kappa, V domains shown)
VH: B1 VH with N74T, A97T, L105M
VL: B1 VL
notes: Mouse variable regions on human IgG1 / kappa constant regions; expressed in Expi293F
B17: chimeric antibody 19H11.6-hz00 (antibody, human IgG1, kappa, V domains shown)
VH: B1 VH with Y57F, S63T, S85R
VL: B1 VL with S22T
notes: as for B16
B18: chimeric antibody 6B9.22-hz00 (antibody, human IgG1, kappa, V domains shown)
VH: B13 VH
VL: B1 VL with S57A, T59S, E61D, D66H, V91F, Y99F, L102F
notes: as for B16
B19: chimeric antibody 9C8.1-hz00 (antibody, human IgG1, kappa, V domains shown)
VH: B12 VH
VL: B1 VL with M21V, S57A, E87A, V91I, Y99F, L102F, A106G, L112I
notes: as for B16

Target: T1, human Claudin18.2 (human, UniProt P56856-2 1-261)
Assay: cell-based or functional assay

Binder | ADCC EC50, Ba/F3-Claudin18.2 target cells, NK-92MI_mCD16 effectors | ADCC Max killing rate %, Ba/F3-Claudin18.2 target cells
B1 | 0.049 µg/mL | 59.8%
B2 | 0.091 µg/mL | 64.4%
B3 | 0.068 µg/mL | 63.8%
B4 | 0.097 µg/mL | 60.5%
B5 | 0.048 µg/mL | 55.4%
B6 | 0.08 µg/mL | 66.2%
B7 | 0.113 µg/mL | 59.6%

Target: T2, human Claudin18.1 (human, UniProt P56856 1-261)
T2 construct: whole, on cells; Presented on transfected cells; also called CLDN18.1
Assay: FACS titration on Ba/F3-Claudin 18.1 cells
Experimental: (§1) The affinity of the candidates to Claudin18.2 was measured using FACS. […] Ba/F3-Claudin18.1 and Ba/F3-Claudin18.2 cells were incubated with the purified mouse antibodies at various concentrations on ice for 30 min and mouse IgG was used as negative control (Thermo Fisher, Cat: 31903), followed by washing with FACS buffer (PBS+2% FBS) twice.

Binder | binding result
B8 | no binding (tested: about 50 nM)
B9 | no binding (tested: about 50 nM)
B10 | no binding (tested: about 50 nM)
B11 | no binding (tested: about 50 nM)
B12 | no binding (tested: about 50 nM)
B13 | no binding (tested: about 50 nM)

Target: T1, human Claudin18.2
Assay: flow cytometry (IntelliCyt) on Ba/F3-Claudin18.2 cells
Source text: In order to evaluate the anti-Claudin18.2 humanized antibodies, codon optimized cDNAs of the heavy chains and the light chains of the candidate humanized antibodies from Example 6 were synthesized and ligated into pcDNA3.4 (by Nanjing Genscript Biotech Corporation). Expi293F cells (purchased from Thermo Incorporation) were co-transfected with pcDNA3.4 coding the heavy chain and light chain of each antibody. The antibodies were purified from the supernatant using protein A (MabSelect SuRe, GE). The affinity of the humanized antibodies to Claudin18.2 was determined using Ba/F3-Claudin18.2 cells which over-expressed human Claudin18.2. Ba/F3-Claudin18.2 cells (60000 in 10 ul buffer) were incubated with purified humanized antibodies on ice for 30 min, followed by washing with buffer (PBS+2% FBS) twice and addition of Alexa647-labeled goat-anti-human IgG Fc antibody (1:500 dilution). The cells were incubated on ice for another 30 min and analyzed by IntelliCyt.

Binder | Max MFI
B1 | 1.12e+07 MFI
B14 | 1.46e+07 MFI
B15 | 1.06e+07 MFI
B5 | 1.13e+07 MFI
B6 | 8.99e+06 MFI
B7 | 5.9e+06 MFI

Target: T1, human Claudin18.2
Assay: flow cytometry on Ba/F3-Claudin18.2 cells, chimeric antibody
Experimental: The affinity of the anti-Claudin18.2 chimeric antibodies to Ba/F3-Claudin18.2 cells were determined. […] The cells were then analyzed by FACS.

Binder | EC50 | Max MFI
B1 | 11 nM | 1.18e+07 MFI
B16 | 10.5 nM | 1.24e+07 MFI
B17 | 11.6 nM | 1.3e+07 MFI
B18 | 18.2 nM | 1.67e+07 MFI
B19 | 23.9 nM | 1.44e+07 MFI

Target: T1, human Claudin18.2
Assay: flow cytometry on Ba/F3-Claudin18.2 cells, purified mouse antibody
Experimental: as §1

Binder | EC50 | Max MFI
B8 | 16.3 nM | 3.5e+06 MFI
B9 | 8.51 nM | 5.08e+06 MFI
B10 | 10.2 nM | 5.82e+06 MFI
B11 | 10.9 nM | 6.01e+06 MFI
B12 | 9.4 nM | 4.97e+06 MFI
B13 | 3.64 nM | 3.62e+06 MFI
